Measured values from US20130183315A1 (GLENMARK PHARMACEUTICALS S A, published 2013).
Residue numbers refer to the chain shown, from its start.

B1: VH4/VL4 (antibody, human IgG1, kappa, V domains shown)
VH: QVTLKESGPALVKPTQTLTLTCSFSGFSLSTSGMGVSWIRQPPGKALEWIAHIWWDDDKYYSTSLKTRLTISKDTSKNQVVLTMTNMDPVDTATYYCARIDWDGFAYWGQGTLVTVSS
VL: EIVLTQSPATLSLSPGERATLSCRASSSVSYYMAWYQQKPGQAPRLLIYATSNRATGIPARFSGSGSGTDYTLTISSLEPEDFAVYYCQQWSSNPWTFGQGTKVEIKR
notes: Humanized, IGHG1, kappa
B2: VH5/VL4 (antibody, human IgG1, kappa, V domains shown)
VH: B1 VH with S62N, S64A
VL: B1 VL
notes: Humanized, IGHG1, kappa
B3: VH7/VL7 (antibody, human IgG1, kappa, V domains shown)
VH: B1 VH with S37G, I50L, S62N, S64A
VL: EIVLTQSPATLSLSPGERATLSCRASSSVSYMAWYQQKPGQAPRLLIYATSNRATGIPARFSGSGSGTDYTLTISSLEPEDFAVYYCQQWSSNPWTFGQGTKVEIKR
notes: Humanized, IGHG1, kappa
B4: VH7/VL8 (antibody, human IgG1, kappa, V domains shown)
VH: B1 VH with S37G, I50L, S62N, S64A
VL: B3 VL with A33H
notes: Humanized, IGHG1, kappa
B5: VH7/VL11 (antibody, human IgG1, kappa, V domains shown)
VH: B1 VH with S37G, I50L, S62N, S64A
VL: B3 VL with A33H, R53L, T55S
notes: Humanized, IGHG1, kappa
B6: VH3/VL2 (antibody, human IgG1, kappa, V domains shown)
VH: B1 VH with S23T
VL: B1 VL with Y71F
notes: Humanized, IGHG1, kappa
B7: VH2/VL2 (antibody, human IgG1, kappa, V domains shown)
VH: B1 VH with H52R
VL: B1 VL with Y71F
notes: Humanized, IGHG1, kappa
B8: VH2/VL3 (antibody, human IgG1, kappa, V domains shown)
VH: B1 VH with H52R
VL: B1 VL with M33L
notes: Humanized, IGHG1, kappa
B9: VH1/VL2 (antibody, human IgG1, kappa, V domains shown)
VH: B1 VH with S23T, H52R
VL: B1 VL with Y71F
notes: Humanized, IGHG1, kappa
B10: VH3/VL1 (antibody, human IgG1, kappa, V domains shown)
VH: B1 VH with S23T
VL: B1 VL with M33L, Y71F
notes: Humanized, IGHG1, kappa
B11: VH1/VL3 (antibody, human IgG1, kappa, V domains shown)
VH: B1 VH with S23T, H52R
VL: B1 VL with M33L
notes: Humanized, IGHG1, kappa
B12: VH3/VL3 (antibody, human IgG1, kappa, V domains shown)
VH: B1 VH with S23T
VL: B1 VL with M33L
notes: Humanized, IGHG1, kappa
B13: VH2/VL1 (antibody, human IgG1, kappa, V domains shown)
VH: B1 VH with H52R
VL: B1 VL with M33L, Y71F
notes: Humanized, IGHG1, kappa
B14: VH1/VL1 antibody (antibody, human IgG1, kappa, V domains shown)
VH: B1 VH with S23T, H52R
VL: B1 VL with M33L, Y71F
notes: Humanized, IGHG1, kappa; also called first humanized antibody
B15: VH7/VL9 (antibody, human IgG1, kappa, V domains shown)
VH: B1 VH with S37G, I50L, S62N, S64A
VL: B3 VL with A33H, L45P, L46W
notes: Humanized, IGHG1, kappa; also called humanized variant VH7/VL9

The binders below were run against T1, recombinant human OX40-his protein (human, UniProt P43489 29-214) (assay: SPR (BIAcore): antibody captured on protein A chip, human OX40-his as analyte; analyte concentration not given).
T1 construct: Secretion driven by the native signal peptide of human TNFRSF4; also called recombinant histidine tagged human OX40 receptor extracellular domain; recombinant monovalent human OX40 receptor extracellular domain
T1 sequence: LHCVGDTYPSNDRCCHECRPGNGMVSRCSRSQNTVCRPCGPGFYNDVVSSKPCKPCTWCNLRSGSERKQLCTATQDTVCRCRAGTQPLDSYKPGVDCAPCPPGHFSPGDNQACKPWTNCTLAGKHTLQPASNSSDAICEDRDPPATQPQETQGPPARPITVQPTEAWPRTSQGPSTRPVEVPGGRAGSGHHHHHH
Description: (§1) Kinetic binding affinity constants (KD) were measured on protein-A captured antibody using recombinant histidine tagged human OX40 receptor extracellular domain as described in Example 1 as analyte. Measurements were conducted on a BIAcore 2000 (GE Healthcare—BIAcore, Uppsala, Sweden) at room temperature, and analyzed with the BiaEvaluation software (BIAcore; v4.1).
(§2) A CMS research grade sensor chip (GE Healthcare Europe GmbH, Glattbrugg, Switzerland; BR-1000-14) was activated by injecting 35 μl of a 1:1 N-hydroxysulfosuccinimide (NHS)/1-Ethyl-3-[3-dimethylaminopropyl]carbodiimide Hydrochloride (EDC) solution (v/v; 5 μl/min flow-rate; on flow paths 1 and 2). Protein-A (ref. P7837; Sigma-Aldrich Chemie GmbH, Buchs, Switzerland) was diluted to a final concentration of 50 μg/ml in acetate buffer pH 4.5 (GE, BR-1003-50; one pH unit below pI) and subsequently immobilized on the previously activated CMS sensor chip by injecting 35 μl on both flow path 1 and 2 (5 μl/min); this corresponded to approximately 1500 response units (RUs). The protein-A-CMS sensor chip was then deactivated by injecting 35 μl of ethanolamine solution (5 μl/min). Finally, two injections of 10 μl of glycine solution (GE, ref BR-1003-54; 10 mM; pH 1.5) were performed to release non-crosslinked protein-A molecules.
(§3) 10 μl of this diluted stock were subsequently injected on the flow-path 2 of the protein-A CMS chip (30 μl/min) to reach 200-250 RUs. Following this capture step, the recombinant histidine tagged human OX40 receptor extracellular domain was injected at different concentrations (50 nM to 0.4 μM) on the flow-path 1 and 2 (flow-path 1 being used as reference) at a 30 μl/min flow rate. After each binding event, surface was regenerated with glycine buffer pH 1.5 injected for 1 min (10 μl/min)

Row | Binder | binding result
1 | B1 | binds
2 | B2 | binds
3 | B3 | binds
4 | B4 | binds
5 | B5 | binds

The binders below were run against T1, recombinant human OX40-his protein (assay: SPR (BIAcore): antibody captured on protein A chip, human OX40-his as analyte).
Description: as §1, §2, §3

Row | Binder | binding result
6 | B6 | no binding (tested: not printed)
7 | B7 | no binding (tested: not printed)
8 | B8 | no binding (tested: not printed)
9 | B9 | no binding (tested: not printed)
10 | B10 | no binding (tested: not printed)
11 | B11 | no binding (tested: not printed)
12 | B12 | no binding (tested: not printed)
13 | B13 | no binding (tested: not printed)
14 | B14 | no binding (tested: not printed)

What follows are binders tested against T1, recombinant human OX40-his protein (assay: SPR, antibody captured on protein A, OX40-his as analyte).
Description: as §1, §2, §3

Row | Binder | Kd [nM] | koff [s⁻¹] | kon [M⁻¹ s⁻¹]
15 | B15 | 70 | 0.00312 | 44500
